# Test results published in US20250122300A1 (INSERM INSTITUT NATIONAL DE LA SANT ET DE LA RECHERCHE M …, published 2025).
# Substitutions are numbered along the chain they refer to.
# B1: Anti-45RC Variant A (antibody, human IgG1, kappa, V domains shown)
# VH: QVQLVQSGAEVKKPGASVKVSCKASGYTFTNYYIGWVRQAPGQGLEWIGDIFPGGDYANSNEKFKGRVTLTADTSISTAYMELSRLRSDDTVVYYCVRRNFDYWGQGTLVTVSS
# VL: DIQLTQSPSFLSASVGDRVTITCSASSSVSYMHWFQQKPGKAPKLWIYNTSNLPSGVPSRFSGSGSGTEYTLTISSLQPEDFATYYCQQRSSYPLTFGGGTKVEIKR
# B2: Anti-45RC Variant A1 (antibody, human IgG1, kappa, V domains shown)
# VH: B1 VH with A58T, S60Y, N61A, K65Q
# VL: B1 VL with S24R, F35Y
# B3: Anti-45RC Variant A3 (antibody, human IgG1, kappa, V domains shown)
# VH: B1 VH with D56G, A58T, S60Y, N61A, K65Q
# VL: B1 VL with S24R, F35Y
# Assays:
# [1] = target: macaque CD45RC (cynomolgus macaque); test: flow cytometry, cynomolgus macaque PBMC, CD3- cells; 10 µg/ml (p-1486)
# [2] = target: macaque CD45RC (cynomolgus macaque); test: flow cytometry, cynomolgus macaque PBMC, CD3+ cells (p-1488); 10 µg/ml (p-1486)
Binder,% of cells CD45RC+ [1],% of cells CD45RC+ [2]
B1,75.6%,17.2%
B2,76.3%,15.6%
B3,82.6%,15.2%
